This data set addresses HA-Ras (wild-type) (UniProt P01112).
Chain of UniProt P01112 (P01112 whole entry, looked up): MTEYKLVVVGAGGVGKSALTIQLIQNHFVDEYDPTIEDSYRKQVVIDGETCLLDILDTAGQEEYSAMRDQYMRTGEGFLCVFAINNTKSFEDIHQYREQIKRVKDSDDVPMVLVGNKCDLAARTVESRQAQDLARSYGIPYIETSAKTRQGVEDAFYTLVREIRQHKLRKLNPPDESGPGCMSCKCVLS

Turning to Flag-SOS, the “amount of GTP-bound HA-Ras (32-PO4 labeling, a-HA immunoprecipitation, TLC)” value is listed as “expression of Flag-SOS significantly increased the amount of GTP-bound HA-Ras”.

Values taken from patent US20020150566.
